In patent US20060252692A1, “Inhibitors for use in hemostasis” (ZymoGenetics, Inc., priority 2002, published 2006):

Key:
[1] = tested on: TF-1 cells; assay: Adhesion and spreading of TF-1 cells on zsig37-coated plates; type: cell-based; conditions: addition of soluble zsig37
Experimental: The ability of zsig37 to stimulate adhesion and spreading of TF-1 cells was assayed as follows. A series of dilutions were prepared from C-terminal Glu-Glu-tagged zsig37, from 10 to 0.0625 ’g/ml, in either PBS or ELISA coating buffer (0.1 M NaCO3) and each was plated into a 96 well plate (Costar; Pleasanton, Calif.) at 100 μl/well. The plates were incubated at 37° C., 5% CO2 for 2 hours. The plates were then washed 3× with RPMI/10% FBS (RPMI 1640, 2 mM L-glutamine, 110 μg/ml sodium pyruvate, PSN and 10% heat inactivated fetal bovine serum) and allowed to block for 15 minutes.
TF-1 cells (derived from acute myeloid leukemia cells) were resuspended in RPMI/10% FBS and plated into at 10,000 cells/well into the zsig37CEE-coated 96 well plates at a final volume of 120 μl/well. The plate was incubated at 37° C. under 5% CO2 for 2 hours. The plates were then washed 3× with PBS and 200 μl/well growth media (RPMI/10% FBS, 5 ng/ml GM-CSF) was added. The cells were microscopically inspected before and after the wash.
A dye incorporation assay was also used to measure the number of adherent cells based on a colorimetric change and an increase in fluorescent signal. ALAMAR BLUE (AccuMed; Chicago, Ill.) was added to the 96 well plates and the cells were incubated at 37° C. under 5% CO2 overnight. […]

[2] = tested on: A7-BaF-3 cells; assay: Proliferation assay on zsig37-coated plates, A7-BaF-3; type: cell-based; conditions: 5,000 cells/well
Experimental: A second assay was performed with TF-1, DA-1, an IL-3 dependent cell line derived from the lymph node of a mouse with a B-cell lymphoma by outgrowth in IL-3 media, pre-B (p53−/− mouse marrow cells, IL-7 dependent, B220+, Thy1 low, Sca-1+), and A7BaF-3 cell lines as described above at 5,000 cells/well. BHK cells were also plated at 500 cells/well.

[3] = tested on: iliac artery crush injury/stenosis; assay: Rabbit iliac artery crush injury/stenosis model; type: in vivo, New Zealand White rabbits
Experimental: The effect of zsig37 on blood flow dynamics following vascular injury in a rabbit iliac artery crush injury/stenosis model was also evaluated. Young adult male New Zealand White rabbits were anesthetized as described above. Via an abdominal incision, the aorto-iliac bifurcation was exposed and each iliac freed of surrounding tissues and the main branches ligated. Each iliac was fitted with an ultrasound flow probe to monitor blood flow through the vessel. Based on blood flow data, one iliac was selected to be used for the injury and the other was catheterized for delivery of the test sample. Rabbits were divided into dose groups of 6 animals/group. Test sample doses containing zsig37 increased in half-log increments from 3-1000 μg/kg over the selected infusion period. The test samples infusion was initiated followed by creation of a critical stenosis that reduced blood flow through the vessel by approximately 50%. After creation of the stenosis and a period of blood flow stabilization, the vessel was injured by crushing the vessel between the jaws of a smooth needle holder. The infusion was continued post-injury for a set period of time, 10-20 minutes. Blood flow through the injured vessel was monitored for 60 minutes post-injury. The animals were euthanized at he conclusion of the study period. […]

[4] = tested on: platelets activated by CRP (platelet GPVI); assay: Inhibition of CRP activation of platelets by zsig37; type: cell-based, human; conditions: plate coated with 5 μg/ml CRP; zsig37 0-200 μg/ml
Experimental: The lysine containing CRP (Ac-GKO-(GPO)10-GKOGV) (SEQ ID NO:15) was synthesized and cross-linked essentially as described by described by Morton (Morton et al., Biochem. J., 306(2):337-344 (Mar. 1, 1995)). The potency of the cross-linked CRP was determined using a using a modified microplate platelet aggregation method as described previously (Bednar B., et al., Thrombosis Research, 77(5):453-463 (1995)). Platelet rich plasma (PRP) was prepared by centrifugation (150 g, 30 min.) from citrated blood obtained from healthy volunteers. Modified Hepes Tyrodes buffer (10 mM Hepes, 137 mM NaCl, 2.7 mM KCL, 0.4 mM NaH2PO4, 1.2mM NaHCO3, 0.1% dextrose and 0.2% BSA fraction V) was used to adjust the platelet concentration to 2.6×10^8/mL. To determine potency, triplicate wells of 0-20 μg/ml of CRP was mixed with platelets in a 96-well flat bottom plate. As a control, collagen-I norm was assayed in triplicate at a final concentration of 1.25 μg/mL. The plate was agitated on a microplate reader and turbidity was monitored as percent light transmitted at 632 nm. The EC50 for the CRP was determined from 3 assays to be 0.1-0.2 μg/ml. […] The plate was washed three times with 5% BSA/PBS and triplicate wells of 0-200 μg/ml of zsig37 was incubated for 1 hour at room temperature. Platelets were then added and assayed as described.

[5] = tested on: alternate pathway of human Complement serum; assay: Complement hemolysis assay, alternate pathway (rabbit erythrocytes and EGTA); type: biochemical
Experimental: Complement assays were performed in 96 well round bottom plates. Gelatin Veronal buffer containing magnesium and calcium (141 mM NaCl, 1.8 mM sodium barbitol, 3.1 mM barbituric acid, 0.1% bovine gelatin, 0.5 mM MgCl2 and 0.15 mM CaCl2) was used for all serum and inhibitor dilutions as well as erythrocyte suspensions. Fifty microliters of standardized human Complement serum (Sigma Chemical Co.), diluted 1/37.5 (for a final dilution of 1/150) was added to each well. The inhibitor was added in triplicate, 50 μl/well. The serum and inhibitor were incubated for thirty minutes at room temperature. The assay was initiated by the addition of 100 μl of 2×10^8/ml unsensitized sheep erythrocytes (Colorado Serum Co.; Denver, Colo.), sensitized sheep erythrocytes, sensitized using the Hemolysin manufacturer's protocol (BioWhittaker Inc.; Walkersville, Md.) and rabbit erythrocytes containing 16 mM EGTA, and 4 mM Mg^++. A human serum dilution series from 1/50 to 1/400 was also plated as an activity control. Erythrocytes, lysed with distilled water and diluted to 100, 75, 50, 25, and 12.5 percent lysis, were used to quantify complement percent lysis. The plate was sealed and incubated at 37° C. for one hour with mixing every 15 minutes. […] The plate was read at 415 nm and percent lysis was calculated.

B1: zsig37: adipocyte complement related protein homolog, polypeptide of SEQ ID NO:2, inhibits collagen-mediated platelet activation and the complement pathway (protein, listed as Homo sapiens)
chain: MGSRGQGLLLAYCLLLAFASGLVLSRVPHVQGEQQEWEGTEELPSPPDHAERAEEQHEKYRPSQDQGLPASRCLRCCDPGTSMYPATAVPQINITILKGEKGDRGDRGLQGKYGKTGSAGARGHTGPKGQKGSMGAPGERCKSHYAAFSVGRKKPMHSNHYYQTVIFDTEFVNLYDHFNMFTGKFYCYVPGLYFFSLNVHTWNQKETYLHIMKNEEEVVILFAQVGDRSIMQSQSLMLELREQDQVWVRLYKGERENAIFSEELDTYITFSGYLVKHATEP
**Q.** Which results are given for B1?
**A.** block of cell adhesion to bound zsig37 by soluble zsig37 [1]: did not block adhesion; growth of A7-BaF-3 cells [2]: enhanced the growth; patency time ([3]; 3-1000 μg/kg infusion, 60 minute period): tendency for zsig37 to promote increased patency time with increased dose up to 300 μg/kg; thrombolytic activity ([3]; study with zsig37 hexamer, flow starting from occlusion): possesses thrombolytic activity; inhibition of CRP activation of platelets [4]: results from 3 of 6 assays demonstrated inhibition of CRP; inhibition of alternate pathway lysis [5]: no apparent inhibition
